The assay deals with Chicken egg white-derived lysozyme (Sigma-Aldrich) (chicken) (UniProt P00698). Briefly: SPR, Biacore T200; antigen immobilised, antibody as analyte. On the technique in general: Surface plasmon resonance follows binding to a sensor surface in real time, without labels.

pKd: −log10 of the molar value.

Chicken egg white-derived lysozyme (Sigma-Aldrich) (chicken), sequence (P00698 19-147): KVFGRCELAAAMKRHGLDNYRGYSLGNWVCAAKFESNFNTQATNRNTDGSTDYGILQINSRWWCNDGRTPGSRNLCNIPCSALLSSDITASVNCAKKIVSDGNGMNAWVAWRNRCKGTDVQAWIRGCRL

Turning to “mouse anti-lysozyme antibody of clone Hy-HEL5, wild-type”, the negative-log Kd (pKd) (in general, the Kd on a negative log10 scale, so that one unit is a factor of ten) was 9.75.

The record behind these values is patent publication US20210230304A1.
